Article PMC4045705 (Chembiochem : a European journal of chemical biology, 2014)

Biological target: phosphorylated extracellular regulated kinase 2 (pERK2) (UniProt P28482 1-360, phosphorylated (sites not given))
Test: SPR

Sequence of phosphorylated extracellular regulated kinase 2 (pERK2) (P28482 whole entry): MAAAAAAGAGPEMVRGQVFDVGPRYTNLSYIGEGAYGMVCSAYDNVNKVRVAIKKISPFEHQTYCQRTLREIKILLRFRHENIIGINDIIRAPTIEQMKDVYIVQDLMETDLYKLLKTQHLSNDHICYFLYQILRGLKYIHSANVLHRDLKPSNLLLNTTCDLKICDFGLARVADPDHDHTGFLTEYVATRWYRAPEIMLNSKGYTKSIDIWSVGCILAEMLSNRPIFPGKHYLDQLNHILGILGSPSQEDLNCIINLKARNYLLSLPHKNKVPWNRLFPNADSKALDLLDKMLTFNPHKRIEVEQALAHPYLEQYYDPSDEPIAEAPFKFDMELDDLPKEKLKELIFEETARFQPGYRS

B1: synthetic DARPin pE59 (designed binder)
chain: GGGGGSDLGKKLLEAARAGQDDEVRILXANGADVNALDEDGLTPLHLAAQLGHLEIVEVLLKYGADVNAEDNFGITPLHLAAIRGHLEIVEVLLKHGADVNAQDKFGKTAFDISIDNGNEDLAEILQKLN
modifications: norleucine (Nle) at 28 in place of Met; C-terminal carboxamide (CONH2) at 130Asn
Kd: 0.19 µM
